Experimental data as given in paper PMC5715728.

Molecular target: major capsid protein (MCP) (human cytomegalovirus (HCMV) strain AD169) (UniProt P16729)
Assay: cryo-EM structure

smallest capsid protein (SCP) (from UniProt Q7M6N6 1-75) (natural protein)
stoichiometry N: 1
